Measurements taken from paper PMC4933465 (The Journal of Biological Chemistry, 2016).
Where a chain is given by its changes, count along the chain named. Numbers in names are those of the source.

B1: CCL5 (ligand, UniProt P13501 24-91, looked up)
chain: SPYSSDTTPCCFAYIARPLPRAHIKEYFYTSGKCSNPAVVFVTRKNRQVCANPEKKWVREYINSLEMS
notes: chemokine CCL5; source: E. coli, purified
B2: Link_TSG6_T (K55A/K69A/K76A) (domain or fragment, human)
chain: GVYHREARSGKYKLTYAEAAAVCEFEGGHLATYAQLEAARAIGFHVCAAGWMAKGRVGYPIVKPGPNCGFGKTGIIDYGIRLNRSERWDAYCYNPHAK
notes: Link module of human TSG-6 with three lysines changed to alanine; residues numbered as in the pre-protein
B3: CCL27 (ligand, UniProt Q9Y4X3 25-112, looked up)
chain: FLLPPSTACCTQLYRKPLSDKLLRKVIQVELQEADGDCHLQAFVLHLAQRSICIHPQNPSLSQWFEHQERKLHGTLPKLNFGMLRKMG
notes: chemokine CCL27; source: E. coli, purified
B4: CCL27 K25A (ligand, UniProt Q9Y4X3 25-112, looked up)
chain: B3 chain with K25A
notes: chemokine CCL27 with K25A; also called CCL27 K25A mutant; source: E. coli, purified
B5: CCL21 (ligand, UniProt O00585 24-134, looked up)
chain: SDGGAQDCCLKYSQRKIPAKVVRSYRKQEPSLGCSIPAILFLPRKRSQAELCADPKELWVQQLMQHLDKTPSPQKPAQGCRKDRGASKTGKKGKGSKGCKRTERSQTPKGP
notes: chemokine CCL21; source: E. coli, purified
B6: Biotinylated CCL21 (ligand, UniProt O00585 24-134, looked up)
chain: B5 chain
modifications: biotin
notes: chemokine CCL21, biotinylated; also called biotinylated chemokine CCL21; source: E. coli, purified
B7: CXCL11 (ligand, UniProt O14625 22-94, looked up)
chain: FPMFKRGRCLCIGPGVKAVKVADIEKASIMYPSNNCDKIEVIITLKENKGQRCLNPKSKQARLIIKKVERKNF
notes: chemokine CXCL11; CXCL11 is not in the methods' list of chemokines made in E. coli
B8: CCL19 (ligand, UniProt Q99731 22-98, looked up)
chain: GTNDAEDCCLSVTQKPIPGYIVRNFHYLLIKDGCRVPAVVFTTLRGRQLCAPPDQPWVERIIQRLQRTSAKMKRRSS
notes: chemokine CCL19; source: E. coli, purified
B9: CCL7 (ligand)
chain: not shown
notes: chemokine CCL7; source: E. coli, purified

Tests used:
Settings in all cases: both partners purified
[1] = molecular target: T1, Link_TSG6 (recombinant Link module from human TSG-6) (human, UniProt P98066 36-133); assay: SPR; Link_TSG6 amine-coupled to a C1 chip (800–1000 RU), chemokine as analyte; BIAcore 3000; 10 mM HEPES, 150 mM NaCl, 0.05% Tween 20, pH 7.4; 40 μl/min; 1:1 Langmuir model; apparent affinities
T1 construct: Link module of human TSG-6 (TNF-stimulated gene/protein 6); residues numbered as in the pre-protein; also called TSG-6 Link module

CCL7 = molecular target: B9; assay: ELISA; solid phase competition: chemokine (250 nM) coated on MaxiSorp plates, biotinylated heparin (25 ng/well) with Link_TSG6_T (0–1000 nM); 10 mM NaOAc, 150 mM NaCl, 2% Tween 20, pH 6.0, room temperature, 4 h; bound heparin detected
CCL19 = molecular target: B8; assay: as above
CXCL11 = molecular target: B7; assay: as above
CCL2 = molecular target: T2, CCL2 (UniProt P13500 24-99); assay: as above
T2 construct: chemokine CCL2; source: E. coli, purified

[2] = molecular target: T1, Link_TSG6 (recombinant Link module from …); assay: SPR; Link_TSG6 amine-coupled to a C1 chip (800–1000 RU), chemokine as analyte; BIAcore 3000; 10 mM HEPES, 150 mM NaCl, 0.05% Tween 20, pH 7.4; 40 μl/min; 1:1 Langmuir model; apparent affinities; remark: listed apart in the source
[3] = molecular target: T1, Link_TSG6 (recombinant Link module from …); assay: plate binding assay on a collagen-coated surface, labeled streptavidin detection; wells coated with type I collagen (100 μg/ml); biotinylated chemokine (10, 50 or 200 nM) alone or pre-incubated 30 min at 37 °C with different molar ratios of Link_TSG6 in cPBS, then 1 h on the surface; streptavidin IRDye 800CW

Sequence of CCL7 (P80098 24-99): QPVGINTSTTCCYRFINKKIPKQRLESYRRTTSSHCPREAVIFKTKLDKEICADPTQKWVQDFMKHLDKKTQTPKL
T2 sequence (P13500 24-99): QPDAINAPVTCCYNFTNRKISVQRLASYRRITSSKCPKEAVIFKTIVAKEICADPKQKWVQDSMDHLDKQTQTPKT

Binder	Kd [2] [nM]	koff [2] [s⁻¹]	kon [2] [M⁻¹ s⁻¹]	other results
B1	–	–	–	binding result [1]: binds
B2	–	–	–	IC50 (CCL7): 159 nM; IC50 (CCL19): 55 nM; IC50 (CXCL11): 168 nM; IC50 (CCL2): 84 nM
B3	85.2	0.0023	27000	–
B4	753	0.0061	8100	–
B5	4.8	0.0034	710000	–
B6	–	–	–	binding result [3]: binds
B7	5.2	0.0013	250000	–
B8	17.5	0.0028	160000	–
B9	18.4	0.0016	87000	–
